Laboratory results: patent US20210395725A1
Blank lines part the entries; values can stand above or below the substance they belong to.

Columns and labels:
[1] = target: streptavidin-Alexafluor 647 (UniProt P22629); experiment: yeast display flow cytometry; secondary reagent only
[2] = target: hCD81 LEL mutant C4C9 (Ala134Cys/Lys144Cys and Val135Cys/Ser168Cys) (human) (UniProt P60033); experiment: ELISA; M38 coated at 5 µg/mL, CD81 LEL variant at 0.555556 µg/ml, anti-his-HRP
[3] = target: wild-type human CD81 LEL (human) (UniProt P60033); experiment: as above
Sequence of wild-type human CD81 LEL (human) (P60033 113-201 limits assumed): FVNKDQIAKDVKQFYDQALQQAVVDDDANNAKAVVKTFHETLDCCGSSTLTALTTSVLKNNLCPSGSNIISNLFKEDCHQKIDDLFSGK

[4] = target: hCD81 LEL mutant C4C9 (Ala134Cys/Lys144Cys and Val135Cys/Ser168Cys) (human) (UniProt P60033); experiment: ELISA; M38 coated at 5 µg/mL, CD81 LEL variant at 0.002286 µg/ml, anti-his-HRP
[5] = target: wild-type human CD81 LEL (human) (UniProt P60033); experiment: as above
[6] = target: hCD81 LEL mutant C4C9 (Ala134Cys/Lys144Cys and Val135Cys/Ser168Cys) (human) (UniProt P60033); experiment: ELISA; M38 coated at 5 µg/mL, CD81 LEL variant at 0.020576 µg/ml, anti-his-HRP
[7] = target: wild-type human CD81 LEL (human) (UniProt P60033); experiment: as above
[8] = target: wild-type human CD81 LEL (human) (UniProt P60033); experiment: HEK293-6E cell display flow cytometry; M38 10 µg/ml + anti-mouse F(ab)2-Alexa Fluor 555; secondary only 8.52
[9] = target: hCD81 LEL mutant C4C9 (Ala134Cys/Lys144Cys and Val135Cys/Ser168Cys) (human) (UniProt P60033); experiment: ELISA; M38 coated at 5 µg/mL, CD81 LEL variant at 5 µg/ml, anti-his-HRP
[10] = target: wild-type human CD81 LEL (human) (UniProt P60033); experiment: as above
[11] = target: hCD81 LEL mutant C4C9 (Ala134Cys/Lys144Cys and Val135Cys/Ser168Cys) (human) (UniProt P60033); experiment: ELISA; M38 coated at 5 µg/mL, CD81 LEL variant at 0.185185 µg/ml, anti-his-HRP
[12] = target: wild-type human CD81 LEL (human) (UniProt P60033); experiment: as above
[13] = target: hCD81 LEL mutant C4C9 (Ala134Cys/Lys144Cys and Val135Cys/Ser168Cys) (human) (UniProt P60033); experiment: ELISA; M38 coated at 5 µg/mL, CD81 LEL variant at 0.006859 µg/ml, anti-his-HRP
[14] = target: wild-type human CD81 LEL (human) (UniProt P60033); experiment: as above
[15] = target: hCD81 LEL mutant C4C9 (Ala134Cys/Lys144Cys and Val135Cys/Ser168Cys) (human) (UniProt P60033); experiment: ELISA; M38 coated at 5 µg/mL, CD81 LEL variant at 0.061728 µg/ml, anti-his-HRP
[16] = target: wild-type human CD81 LEL (human) (UniProt P60033); experiment: as above
[17] = target: hCD81 LEL mutant C4C9 (Ala134Cys/Lys144Cys and Val135Cys/Ser168Cys) (human) (UniProt P60033); experiment: ELISA; M38 coated at 5 µg/mL, CD81 LEL variant at 1.666667 µg/ml, anti-his-HRP
[18] = target: wild-type human CD81 LEL (human) (UniProt P60033); experiment: as above
[19] = target: wild-type human CD9 LEL (human) (UniProt P21926); experiment: yeast display flow cytometry; MEM-61 10 µg/ml + goat anti-mouse (Fab′)2-Alexa Fluor 555; induction at 37 °C; secondary only 4.21
Sequence of wild-type human CD9 LEL (human) (P21926 113-192 limits assumed): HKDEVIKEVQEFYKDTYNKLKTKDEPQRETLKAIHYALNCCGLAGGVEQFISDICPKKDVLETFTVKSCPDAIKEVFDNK

[20] = target: wild-type human CD9 LEL (human) (UniProt P21926); experiment: yeast display flow cytometry; MEM-61 10 µg/ml + goat anti-mouse (Fab′)2-Alexa Fluor 555; induction at 20 °C; secondary only 1.14

Sequence of hCD81 LEL mutant C4C9 (Ala134Cys/Lys144Cys and Val135Cys/Ser168Cys) (human) (P60033 114-202 A134C/V135C/K144C/S168C): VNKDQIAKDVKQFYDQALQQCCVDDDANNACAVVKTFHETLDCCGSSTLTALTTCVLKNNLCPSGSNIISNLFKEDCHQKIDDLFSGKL
Sequence of streptavidin-Alexafluor 647 (P22629 37-163 limits assumed): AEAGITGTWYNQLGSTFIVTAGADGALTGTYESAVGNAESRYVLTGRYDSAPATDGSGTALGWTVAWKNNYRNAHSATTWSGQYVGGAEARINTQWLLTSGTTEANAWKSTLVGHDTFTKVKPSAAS

median fluorescence [1]: 28.3
Substance: wild-type human CD81 LEL (from UniProt P60033 113-201)

A 450/620 [2]: 3.73
A 450/620 [3]: 3.63
A 450/620 [4]: 0.187
A 450/620 [5]: 0.177
A 450/620 [6]: 1.98
A 450/620 [7]: 1.89
MFI [8]: 83.8
A 450/620 [9]: 3.83
A 450/620 [10]: 3.97
A 450/620 [11]: 3.69
A 450/620 [12]: 3.68
A 450/620 [13]: 0.75
A 450/620 [14]: 0.616
A 450/620 [15]: 3.46
A 450/620 [16]: 3.53
A 450/620 [17]: 3.82
A 450/620 [18]: 3.69
Substance: anti-hCD81 M38 antibody

percentage of positive yeast cells [19]: 26.2%
percentage of positive yeast cells [20]: 46.4%
Substance: anti-CD9 specific antibody MEM-61
